Measurements as given in the supplement of paper PMC9112550, “Optimization of the antimicrobial peptide Bac7 by deep mutational scanning” (BMC Biology, 2022).

Tested on: Escherichia coli TOP10
Assay: shrunken log2 fold change of peptide-encoding DNA abundance (4.5 h post-induction vs induction); higher = less antimicrobial activity (less host growth inhibition)
Details: time post-induction: 4.5 h; library: site-saturation at positions 5, 18, 19, 20
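Further: peptides expressed intracellularly from a pBAD plasmid library in pooled LB shake-flask culture, induced with 0.3% L-arabinose, DNA abundance read by NGS, three biological replicates, DESeq2 with apeglm shrinkage.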

RRIRPRPPRLPRPRPRPKVVPRP
shrunken log2 fold change: 0.454

RRIRWRPPRLPRPRPRPHMNPRP
shrunken log2 fold change: -0.667

RRIRGRPPRLPRPRPRPWRFPRP
shrunken log2 fold change: 0.425

RRIRDRPPRLPRPRPRPTSWPRP
shrunken log2 fold change: 0.989

RRIRMRPPRLPRPRPRPMTKPRP
shrunken log2 fold change: 0.0956

RRIRLRPPRLPRPRPRPCFEPRP
shrunken log2 fold change: -0.0179

RRIRARPPRLPRPRPRPLECPRP
shrunken log2 fold change: 0.184

RRIRMRPPRLPRPRPRPNCDPRP
shrunken log2 fold change: 0.194

RRIRCRPPRLPRPRPRPEVWPRP
shrunken log2 fold change: 0.725

RRIRCRPPRLPRPRPRPYTIPRP
shrunken log2 fold change: -0.342

RRIRPRPPRLPRPRPRPFMQPRP
shrunken log2 fold change: -0.396

RRIRCRPPRLPRPRPRPLQQPRP
shrunken log2 fold change: 0.178

RRIRPRPPRLPRPRPRPRTGPRP
shrunken log2 fold change: 1.03

RRIRQRPPRLPRPRPRPDEYPRP
shrunken log2 fold change: 0.0131

RRIRVRPPRLPRPRPRPGTFPRP
shrunken log2 fold change: -0.867

RRIRQRPPRLPRPRPRPHAAPRP
shrunken log2 fold change: 0.465

RRIRSRPPRLPRPRPRPCAQPRP
shrunken log2 fold change: 0.00151

RRIRWRPPRLPRPRPRPIYCPRP
shrunken log2 fold change: -0.581

RRIRFRPPRLPRPRPRPWTTPRP
shrunken log2 fold change: -0.0381

RRIRVRPPRLPRPRPRPCIEPRP
shrunken log2 fold change: -0.351

RRIRRRPPRLPRPRPRPHCEPRP
shrunken log2 fold change: -0.169

RRIRHRPPRLPRPRPRPRSYPRP
shrunken log2 fold change: -0.12

RRIRKRPPRLPRPRPRPTKVPRP
shrunken log2 fold change: 1.21

RRIRERPPRLPRPRPRPNKQPRP
shrunken log2 fold change: -0.174

RRIRSRPPRLPRPRPRPFSCPRP
shrunken log2 fold change: -0.0153

RRIRYRPPRLPRPRPRPNKVPRP
shrunken log2 fold change: -0.596

RRIRERPPRLPRPRPRPQTLPRP
shrunken log2 fold change: -0.324

RRIRVRPPRLPRPRPRPHFPPRP
shrunken log2 fold change: 0.046

RRIRYRPPRLPRPRPRPEILPRP
shrunken log2 fold change: -0.288

RRIRHRPPRLPRPRPRPWSWPRP
shrunken log2 fold change: -0.304

RRIRVRPPRLPRPRPRPYSHPRP
shrunken log2 fold change: -1.25

RRIRQRPPRLPRPRPRPAYKPRP
shrunken log2 fold change: -0.534

RRIRMRPPRLPRPRPRPPGHPRP
shrunken log2 fold change: 1.03

RRIRFRPPRLPRPRPRPSCEPRP
shrunken log2 fold change: -0.619

RRIRKRPPRLPRPRPRPDLPPRP
shrunken log2 fold change: 0.222

RRIRSRPPRLPRPRPRPRYYPRP
shrunken log2 fold change: -0.554

RRIRYRPPRLPRPRPRPINRPRP
shrunken log2 fold change: -0.018

RRIRGRPPRLPRPRPRPSVLPRP
shrunken log2 fold change: 0.389

RRIRWRPPRLPRPRPRPTDRPRP
shrunken log2 fold change: -0.0423

RRIRKRPPRLPRPRPRPPLVPRP
shrunken log2 fold change: 0.598

RRIRIRPPRLPRPRPRPMSPPRP
shrunken log2 fold change: 0.111

RRIRDRPPRLPRPRPRPHNVPRP
shrunken log2 fold change: 0.00884

RRIRTRPPRLPRPRPRPGHMPRP
shrunken log2 fold change: -0.233

RRIRIRPPRLPRPRPRPHYMPRP
shrunken log2 fold change: -0.943

RRIRDRPPRLPRPRPRPRRFPRP
shrunken log2 fold change: 0.212

RRIRKRPPRLPRPRPRPTAEPRP
shrunken log2 fold change: 0.079

RRIRGRPPRLPRPRPRPTIHPRP
shrunken log2 fold change: 0.434

RRIRSRPPRLPRPRPRPPEHPRP
shrunken log2 fold change: 0.169

RRIRKRPPRLPRPRPRPSRTPRP
shrunken log2 fold change: 0.391

RRIRIRPPRLPRPRPRPMQKPRP
shrunken log2 fold change: 0.0387
